Assay results published in patent publication US20240279281A1, “Peptide Inhibitors of Interleukin-23 Receptor” (Janssen Pharmaceutica NV, priority 2023, published 2024).
Starred links: 1 amine or outer side, 2 acyl side, 3 side chain; linkers in the order of their positions; H or OH if unused. Positions of bridges follow the written chain, without caps; N, C: chain ends. Non-standard residues stand in square brackets, D forms with d. No end group written: not given here. N,N‑dimethylasparagine = N,N-dimethylasparagine, CN(C)C(=O)C[C@H](N[*:1])C(=O)[*:2]; 2Nal(6-OH) = N[C@@H](Cc1ccc2cc(O)ccc2c1)C(=O)O; Trp(7-Me) = Cc1cccc2c(C[C@H](N)C(=O)O)c[nH]c12; d(hLys(Me3)) = C[N+](C)(C)CCCCC[C@@H](N)C(=O)O; AEF = NCCOc1ccc(C[C@H](N)C(=O)O)cc1; 3Pal = N[C@@H](Cc1cccnc1)C(=O)O; Pen = CC(C)(S)[C@H](N)C(=O)O; lipid = not defined here; Thp = NC1(C(=O)O)CCOCC1; Sar = CNCC(=O)O

T1: interleukin-23 receptor (IL-23R), Q5VWK5
T1 chain: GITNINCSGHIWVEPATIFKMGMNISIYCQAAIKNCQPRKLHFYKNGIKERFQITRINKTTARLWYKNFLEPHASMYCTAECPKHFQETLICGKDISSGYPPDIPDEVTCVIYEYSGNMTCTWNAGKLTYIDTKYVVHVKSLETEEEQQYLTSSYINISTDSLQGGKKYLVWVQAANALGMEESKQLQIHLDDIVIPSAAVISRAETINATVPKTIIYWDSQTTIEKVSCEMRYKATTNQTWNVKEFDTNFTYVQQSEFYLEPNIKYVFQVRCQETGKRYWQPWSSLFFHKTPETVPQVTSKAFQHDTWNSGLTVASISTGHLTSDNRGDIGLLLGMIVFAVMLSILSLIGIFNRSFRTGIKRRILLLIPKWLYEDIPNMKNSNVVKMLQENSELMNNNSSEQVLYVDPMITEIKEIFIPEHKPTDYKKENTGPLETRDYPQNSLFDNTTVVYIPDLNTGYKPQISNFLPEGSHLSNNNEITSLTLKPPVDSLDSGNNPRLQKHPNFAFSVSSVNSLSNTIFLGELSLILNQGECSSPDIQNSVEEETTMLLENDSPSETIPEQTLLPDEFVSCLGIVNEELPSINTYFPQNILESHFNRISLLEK


Biological target: T1, interleukin-23 receptor (IL-23R), Q5VWK5
Test: cell-based or functional assay

Binder	PBMC pSTAT3 IC50 [nM]
[Pen]NT[Trp(7-Me)]K(Ac)[Pen][AEF][2Nal(6-OH)][Thp]K(Ac)N[3Pal][Sar]K(lipid) (disulfide 1-6 (inferred); ends not checked; also: Lys14 lipidated, lipid not given here) [SEQ ID NO: 241]	< 1
R[Pen]NT[Trp(7-Me)]K(Ac)[Pen][AEF][2Nal(6-OH)][Thp]EN[3Pal][Sar]K(lipid) (disulfide 2-7 (inferred); ends not checked; also: Lys15 lipidated, lipid not given here) [SEQ ID NO: 244]	< 1
[d(hLys(Me3))][Pen][N,N‑dimethylasparagine]T[Trp(7-Me)]K(lipid)[Pen][AEF][2Nal(6-OH)][Thp]EN[3Pal][Sar] (disulfide 2-7 (inferred); ends not checked; also: Lys6 lipidated, lipid not given here) [SEQ ID NO: 239]	< 1
R[Pen]NT[Trp(7-Me)]K(Ac)[Pen][2‑amino‑3‑(4-(2-aminoethoxy)phenyl)propanoic acid][2‑amino‑3‑(6-hydroxynaphthalen-2-yl)propanoic acid][Thp]K(Ac)N[3Pal][Sar]K(lipid) (disulfide 2-7 (inferred); ends not checked; also: Lys15 lipidated, lipid not given here) [SEQ ID NO: 221]	> 1

The remaining lines, values ahead:

PBMC pSTAT3 IC50 [nM]	Binder
< 1	R[Pen]NT[Trp(7-Me)]K(Ac)[Pen][2‑amino‑3‑(4-(2-aminoethoxy)phenyl)propanoic acid][2‑amino‑3‑(6-hydroxynaphthalen-2-yl)propanoic acid][Thp]K(Ac)N[3Pal][Sar]K (disulfide 2-7 (inferred); not fully specified (residue 15); ends not checked; also: K15: lipidated lysine, lipid not given here) [SEQ ID NO: 254]
< 1	[Pen]NT[Trp(7-Me)]K(Ac)[Pen][2‑amino‑3‑(4-(2-aminoethoxy)phenyl)propanoic acid][2‑amino‑3‑(6-hydroxynaphthalen-2-yl)propanoic acid][Thp]K(Ac)N[3Pal][Sar]K (disulfide 1-6 (inferred); not fully specified (residue 14); ends not checked; also: K14: lipidated lysine, lipid not given here) [SEQ ID NO: 256]
< 1	K(lipid)[Pen]NT[Trp(7-Me)]K(Ac)[Pen][AEF][2Nal(6-OH)][Thp]EN[3Pal][Sar] (disulfide 2-7 (inferred); ends not checked; also: Lys1 lipidated, lipid not given here) [SEQ ID NO: 229]
< 1	R[Pen]NT[Trp(7-Me)]K(Ac)[Pen][2‑amino‑3‑(4-(2-aminoethoxy)phenyl)propanoic acid][2‑amino‑3‑(6-hydroxynaphthalen-2-yl)propanoic acid][Thp]K(Ac)N[3Pal][Sar]K (disulfide 2-7 (inferred); not fully specified (residue 15); ends not checked; also: K15: lipidated lysine, lipid not given here) [SEQ ID NO: 255]
